The values that follow come from the supplement of paper PMC10567573.

Sequences and labels used below:
B1: WEE1 (parent)
chain: FISRTSIPNAASEEGDEDDWASNK
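Also: lentivirally expressed fusions sorted by FACS into six bins by GFP to DsRed ratio, PSI derived from sequencing read proportions per bin multiplied by bin number.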

In the series the parent is B1. As to the kind of experiment: protein stability index of a GFP-peptide fusion (GPS, HEK-293T) (PSI 1-6); higher = more stable. The conditions noted are these: c terminus: a fixed tail appended.
In the case of FISRTSIPNDASEEGDEDDWASNK, the protein stability index worked out at 3.15.

As to FISRTSIPNCASEEGDEDDWASNK, the protein stability index came out at 3.67.

For the variant FISRTSIPNIASEEGDEDDWASNK, the protein stability index is 3.56.

As for FISRTSIPNTASEEGDEDDWASNK, the protein stability index amounted to 3.89.

Turning to FISRTSIPNQASEEGDEDDWASNK, the protein stability index is 4.16.

For the variant FISRTSIPNYASEEGDEDDWASNK, the protein stability index turned out to be 3.17.

For the variant FISRTSIFNAASEEGDEDDWASNK, the protein stability index came to 3.19.

Turning to FISRTSILNAASEEGDEDDWASNK, the protein stability index is 2.92.

Regarding FISRTSIINAASEEGDEDDWASNK, the protein stability index was determined as 3.82.

In the case of FISRTSIMNAASEEGDEDDWASNK, the protein stability index turned out to be 3.51.

For the variant FISRTSAPNAASEEGDEDDWASNK, the protein stability index turned out to be 4.21.

With FISRTSIPNAASEEGDEQDWASNK, the protein stability index was 3.56.

Turning to FISRTSIPNAASEEGDEFDWASNK, the protein stability index was 2.5.

Regarding FISRTSIPNAASEEGDEWDWASNK, the protein stability index is 2.54.

Consider FISRTSIPNAASEEGDEADWASNK, for which the protein stability index worked out at 3.62.

Regarding FISRTSIPNAASEEGDEDDWADNK, the protein stability index stood at 4.51.

As to FISRTSIPNAASEEGDEDDWAMNK, the protein stability index turned out to be 3.88.

FISRTSIPNAASEEGDEDDWAGNK: the protein stability index is 2.83.

As to FISRTSIPRAASEEGDEDDWASNK, the protein stability index worked out at 3.35.

Regarding FISRTSIPIAASEEGDEDDWASNK, the protein stability index was determined as 3.77.

In the case of FISRTSIPEAASEEGDEDDWASNK, the protein stability index stood at 4.64.

Turning to FISRTSIPVAASEEGDEDDWASNK, the protein stability index amounted to 3.93.

Take FISRTSIPPAASEEGDEDDWASNK: the protein stability index was 3.91.

Consider FISRTSIPFAASEEGDEDDWASNK, for which the protein stability index was 2.87.

As to FISRTSIPNAASDEGDEDDWASNK, the protein stability index worked out at 3.68.

Regarding FISRTSIPNAASYEGDEDDWASNK, the protein stability index was 3.46.

With FISRTSIPNAASAEGDEDDWASNK, the protein stability index was 3.85.

As to FISRTSIPNAASMEGDEDDWASNK, the protein stability index amounted to 3.64.

Turning to FISRTSIPNAASPEGDEDDWASNK, the protein stability index worked out at 4.43.

With FISRTYIPNAASEEGDEDDWASNK, the protein stability index turned out to be 1.98.

Consider FISRTTIPNAASEEGDEDDWASNK, for which the protein stability index is 3.73.

As to FISRTDIPNAASEEGDEDDWASNK, the protein stability index worked out at 4.39.

Regarding FISRTEIPNAASEEGDEDDWASNK, the protein stability index was found to be 4.86.

FIDRTSIPNAASEEGDEDDWASNK: the protein stability index was 4.67.

Turning to FISRTSIPNAASEEGDEDDWASNI, the protein stability index turned out to be 4.12.

As for FISRTSIPNAASEEGDEDDWASNY, the protein stability index turned out to be 3.94.

In the case of FISRTSIPNAASEEGDEDDWASNV, the protein stability index was 3.58.

For FISRTSIPNAASEEGDEDDWASNT, the protein stability index is 4.12.

As for FISRTSIPNAASEEGDEDDWASNP, the protein stability index stood at 4.54.

Consider FISRTSIPNAASEEGDEDDWMSNK, for which the protein stability index is 3.77.

Regarding FISRTSIPNAASEEGDEDDWWSNK, the protein stability index stood at 3.53.

For FISRTSIPNAASEEGDEDDWFSNK, the protein stability index was 3.72.

As to FISRTSIPNAASEEGDEDDWNSNK, the protein stability index worked out at 3.76.

In the case of FISRSSIPNAASEEGDEDDWASNK, the protein stability index amounted to 4.01.

As to FISRISIPNAASEEGDEDDWASNK, the protein stability index is 3.5.

As to FISRASIPNAASEEGDEDDWASNK, the protein stability index was 4.19.

Regarding FISRTSIPNAASEEGAEDDWASNK, the protein stability index turned out to be 3.72.

Consider FISPTSIPNAASEEGDEDDWASNK, for which the protein stability index came to 3.68.

For the variant FISHTSIPNAASEEGDEDDWASNK, the protein stability index was 4.15.

As for FISDTSIPNAASEEGDEDDWASNK, the protein stability index came to 4.92.

For the variant FISWTSIPNAASEEGDEDDWASNK, the protein stability index came out at 3.67.

As to FISCTSIPNAASEEGDEDDWASNK, the protein stability index was 4.37.

Turning to FISVTSIPNAASEEGDEDDWASNK, the protein stability index was found to be 4.39.

Consider FISRTSIPNAASEEGDIDDWASNK, for which the protein stability index amounted to 3.8.

For the variant FISRTSIPNAASEEGDHDDWASNK, the protein stability index came out at 4.05.

On to FISRTSIPNAASEEGDRDDWASNK, for which the protein stability index came out at 3.67.

Turning to FISRTSIPNAASEEGDLDDWASNK, the protein stability index was 3.11.

For FISRTSIPNAASEEGDWDDWASNK, the protein stability index came to 3.04.

As for FISRTSIPNAASEEGDQDDWASNK, the protein stability index stood at 3.79.

With FNSRTSIPNAASEEGDEDDWASNK, the protein stability index is 5.67.

In the case of FESRTSIPNAASEEGDEDDWASNK, the protein stability index stood at 5.59.

With FWSRTSIPNAASEEGDEDDWASNK, the protein stability index stood at 4.79.

With FISRTSIPNAASETGDEDDWASNK, the protein stability index is 3.99.

Turning to FISRTSIPNAASEAGDEDDWASNK, the protein stability index worked out at 4.43.

For FISRTSIPNAASELGDEDDWASNK, the protein stability index is 3.56.

On to FISRTSIPNAANEEGDEDDWASNK, for which the protein stability index came to 4.07.

Take FISRTSIPNAALEEGDEDDWASNK: the protein stability index is 4.03.

On to FISRTSIPNAASEEGDEDDWASEK, for which the protein stability index turned out to be 4.22.

Consider FISRTSIPNAASEEGDEDDWASIK, for which the protein stability index was found to be 3.79.

For the variant FISRTSIPNAASEEGDEDDWASRK, the protein stability index is 4.21.

Take FISRTSIPNAASEEGDEDDWASQK: the protein stability index came out at 3.82.

As for FISRTSIPNAASEEGDEDDWASGK, the protein stability index was 4.33.

Turning to FISRTSIPNAASEEGDEDDWASTK, the protein stability index is 4.22.

For FISRTSIPNAASEEGDEDDMASNK, the protein stability index came to 4.44.

With FISRTSIPNAASEEGDEDDVASNK, the protein stability index was 4.81.

Consider FISRTSIPNAASEEGDEDDGASNK, for which the protein stability index is 4.52.

Regarding FISRTSIPNAASEEGDEDDPASNK, the protein stability index worked out at 4.57.

As for FISRTSIPNAASEEGDEDDSASNK, the protein stability index amounted to 4.93.

Turning to FISRTSIPNAASEEGDEDDLASNK, the protein stability index worked out at 4.23.

With FISRTSIPNAESEEGDEDDWASNK, the protein stability index came out at 4.37.

For FISRTSIPNAFSEEGDEDDWASNK, the protein stability index came to 3.47.

As to FISRTSIPNAHSEEGDEDDWASNK, the protein stability index was found to be 4.4.

As to FISRTSIPNADSEEGDEDDWASNK, the protein stability index amounted to 4.12.

FISRTSIPNAASEESDEDDWASNK: the protein stability index stood at 4.42.

Take FISRTSIPNAASEEYDEDDWASNK: the protein stability index turned out to be 4.13.

In the case of FISRTSIPNAASEEGDEDAWASNK, the protein stability index stood at 3.77.

As to FISRTSIPNAASEEGDEDLWASNK, the protein stability index was 2.48.

For FISRTSIPNAASEEGDEDEWASNK, the protein stability index came out at 3.96.

With FISRTSIPNAASEEGDEDWWASNK, the protein stability index is 2.37.

For the variant SISRTSIPNAASEEGDEDDWASNK, the protein stability index was determined as 5.84.

Take VISRTSIPNAASEEGDEDDWASNK: the protein stability index was 5.41.

In the case of WISRTSIPNAASEEGDEDDWASNK, the protein stability index is 4.88.

For LISRTSIPNAASEEGDEDDWASNK, the protein stability index came to 5.6.

Turning to AISRTSIPNAASEEGDEDDWASNK, the protein stability index came out at 5.37.
